Results from patent US10597674B2, “HPPD variants and methods of use” (BASF Agricultural Solutions Seed, US LLC, priority 2015, dated 2020).

Tested on: transgenic soybean T0 events
Experiment: Additional greenhouse trials of T0 soybean events, leaf damage score 0-100 as percentiles
Assay type: in vivo
Settings: Cmpd. 1 300 g AI/ha, five days; for leaf damage score, Interquartile range: 75th minus 25th percentile; for leaf damage score, 25th percentile: scale 0 (no damage) to 100 (complete bleaching); for leaf damage score, 75th percentile / leaf damage score, 90th percentile / leaf damage score, Median: scale 0-100
Text: In additional greenhouse trials, 21 to 94 independent T0 soybean events per construct containing an exemplary mutant HPPD polypeptide were sprayed with the HPPD inhibitor herbicide Cmpd. […] Five days after the application, the leaf damaged area due to the HPPD inhibitor herbicide is scored in a scale from 0 (no damage) to 100 (complete bleaching). Under those conditions, the wild-type plants were completely bleached and their damage scores were in the 95-100 range.
Table 9 presents the distribution of the HPPD inhibitor herbicide damage score data as percentile for exemplary mutant HPPD inhibitor herbicide tolerant polypeptides (SEQ ID NOs). The percentiles normalize ranks of the damage score from an individual plant in a population. […] The median is the 50th percentile. Half the values had higher damage scores; half had lower damage scores. […] The difference between the 75th and 25th percentile is called the interquartile range and a marker to quantify scattering in the population. All constructs had only one single cassette insertion in the soybean genome.
In Table 9, the constructs were ranked based on injury scores according to the 75th percentile, from smallest to highest score. All exemplary HPPD polypeptide variants are better in all percentile analyses than the prior art mutant HPPD polypeptide (WO2014/043435) corresponding to SEQ ID NO:2 in this invention. The scoring of the prior art mutant HPPD polypeptide (WO2014/043435) corresponding to SEQ ID NO:2 in this invention is listed in the bottom row of Table 9.

Molecule	leaf damage score, Interquartile range	leaf damage score, 25th percentile	leaf damage score, 75th percentile	leaf damage score, 90th percentile	leaf damage score, Median
SEQ ID NO: 8: mutant HPPD polypeptide: E335P G336D N337S A340V (protein, mutant HPPD polypeptide, mutant HPPD polypeptide: E335P G336D N337S A340V) MADLYENPMGLMGFEFIEFASPTPGTLEPIFEIMGFTKVATHRSKNVHLYRQGEINLILNNEPNSIASYFAAEHGPSVCGMAFRVKDSQKAYNRALELGAQPIHIDTGPMELNLPAIKGIGGAPLYLIDRFGEGSSIYDIDFVYLEGVERNPVGAGLKVIDHLTHNVYRGRMVYWANFYEKLFNFREARYFDIKGEYTGLTSKAMSAPDGMIRIPLNEESSKGAGQIEEFLMQFNGEGIQHVAFLTDDLVKTWDALKKIGMRFMTAPPDTYYEMLEGRLPDHGEPVDQLQARGILLDGSSVEGDKRLLLQIFSETLMGPVFFEFIQRKGDDGFGPDSFKVLFESIERDQVRRGVLTAD	6.3	10.0	16.3	38.5	10.0
SEQ ID NO: 24: mutant HPPD polypeptide: E335P G336H N337S A340V I345V (protein, mutant HPPD polypeptide, mutant HPPD polypeptide: E335P G336H N337S A340V I345V) MADLYENPMGLMGFEFIEFASPTPGTLEPIFEIMGFTKVATHRSKNVHLYRQGEINLILNNEPNSIASYFAAEHGPSVCGMAFRVKDSQKAYNRALELGAQPIHIDTGPMELNLPAIKGIGGAPLYLIDRFGEGSSIYDIDFVYLEGVERNPVGAGLKVIDHLTHNVYRGRMVYWANFYEKLFNFREARYFDIKGEYTGLTSKAMSAPDGMIRIPLNEESSKGAGQIEEFLMQFNGEGIQHVAFLTDDLVKTWDALKKIGMRFMTAPPDTYYEMLEGRLPDHGEPVDQLQARGILLDGSSVEGDKRLLLQIFSETLMGPVFFEFIQRKGDDGFGPHSFKVLFESVERDQVRRGVLTAD	10.0	10.0	20.0	35.0	10.0
SEQ ID NO: 102: mutant HPPD polypeptide: M264L P268G (Table 2: R) T270E T315R E335P G336H N337S A340V S344Q I345M (protein, mutant HPPD polypeptide) MADLYENPMGLMGFEFIEFASPTPGTLEPIFEIMGFTKVATHRSKNVHLYRQGEINLILNNEPNSIASYFAAEHGPSVCGMAFRVKDSQKAYNRALELGAQPIHIDTGPMELNLPAIKGIGGAPLYLIDRFGEGSSIYDIDFVYLEGVERNPVGAGLKVIDHLTHNVYRGRMVYWANFYEKLFNFREARYFDIKGEYTGLTSKAMSAPDGMIRIPLNEESSKGAGQIEEFLMQFNGEGIQHVAFLTDDLVKTWDALKKIGMRFLTAPRDEYYEMLEGRLPDHGEPVDQLQARGILLDGSSVEGDKRLLLQIFSERLMGPVFFEFIQRKGDDGFGPHSFKVLFEQMERDQVRRGVLTAD	12.0	8.0	20.0	45.0	10.0
SEQ ID NO: 54: mutant HPPD polypeptide: P268G T270E E335P G336D N337S K339A A340V I345V (protein, mutant HPPD polypeptide, mutant HPPD polypeptide: P268G T270E E335P G336D N337S K339A A340V I345V) MADLYENPMGLMGFEFIEFASPTPGTLEPIFEIMGFTKVATHRSKNVHLYRQGEINLILNNEPNSIASYFAAEHGPSVCGMAFRVKDSQKAYNRALELGAQPIHIDTGPMELNLPAIKGIGGAPLYLIDRFGEGSSIYDIDFVYLEGVERNPVGAGLKVIDHLTHNVYRGRMVYWANFYEKLFNFREARYFDIKGEYTGLTSKAMSAPDGMIRIPLNEESSKGAGQIEEFLMQFNGEGIQHVAFLTDDLVKTWDALKKIGMRFMTAPGDEYYEMLEGRLPDHGEPVDQLQARGILLDGSSVEGDKRLLLQIFSETLMGPVFFEFIQRKGDDGFGPDSFAVLFESVERDQVRRGVLTAD	10.0	10.0	20.0	62.5	10.0
